The record followed here is doi:10.1101/2023.03.31.535174.

In this series the target is T1, AP2-I_D3 (AP2 domain 3) (Plasmodium falciparum, UniProt Q8IJW6 775-824).
T1 chain: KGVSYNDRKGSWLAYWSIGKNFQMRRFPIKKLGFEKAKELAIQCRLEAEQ
Briefly: EMSA. A general note: A gel shift assay detects complexes by their altered migration in electrophoresis.

B1: AGTGCATTA probe with distal shape mutations (series, up to six point mutations) (dsDNA)
DNA 1: GATAAAATGAGTAAAGTGCATTAAATGTTGTACACC
DNA 2: GGTGTACAACATTTAATGCACTTTACTCATTTTATC
Regarding B1, the binding result is reported as “binds”.
